Test results reported in patent US20220220215A1.
Each block holds one binder with its values, some of them ahead of it.

What was measured:
[1] = biological target: CD137 and PD1 individually fused to subunits of NanoLuc luciferase, on the same cell (NanoBiT assay cells); assay: NanoBiT cell based protein interaction assay, luminescence on bridging of CD137 and PD1 on one cell
[2] = biological target: cynomolgus CD137 and cynomolgus PD-1 on activated CD137+ cynomolgus T cells (cynomolgus) (UniProt A9YYE7); assay: flow cytometry, labelled VH on activated CD137+ cynomolgus T cells, n = 3
[3] = biological target: human CD137 and human PD-1 on stimulated primary human T cells (human); assay: flow cytometry, labelled VH on activated CD137+ human T cells (human control), n = 1
[4] = biological target: human CD137 and human PD-1 on stimulated primary human T cells (human); assay: flow cytometry, AF488-labelled VH on pre-stimulated human CD8+ cells, average of 2 donors

B2: TPP-1246 CD137A-6GS-HSA2-6GS-PD138G7(G109D) (bispecific antibody)
chain: EVQLVESGGGLVQPGGSLRLSCAASGFTLSNYWMNWVRQAPGKGLEWVANINQDGSERYYVDSVKGRFTISRDNAKNSLYLQMNSLRAEDTAVYYCARGGEGYGVDHYGLDVSGQGTTVTVSSGGGGSGGGGSGGGGSGGGGSGGGGSGGGGSEVQLVESGGGLVKPGGSLRLSCAASGFTFSNYNMNWVRQAPGKGLEWVSSISSAGTHIYYADSVKGRFTISRDNAKNSLYLQMNSLRAEDTAVYYCARDPHSTGWYKDFDYWGQGTLVTVSSGGGGSGGGGSGGGGSGGGGSGGGGSGGGGSEVQLVESGGGVVRPGGSLRLSCAASGFTFDDYAMSWVRQAPGKGLEWVSGITWNGGSTGYADSVKDRFTISRDNAKNSLYLQMNSLRAEDTALYYCVRDKYSYAWSYDDFDIWGQGTMVTVSS
- EC50 [1]: 0.0251 nM
- EC50 [2]: 3.63 nM
- EC50 [3]: 3.75 nM
- EC50 [4]: 2.22 nM

B3: TPP-1290 PD138G7(G109D)-6GS-CD137A-6GS-HSA2 (bispecific antibody)
chain: EVQLVESGGGVVRPGGSLRLSCAASGFTFDDYAMSWVRQAPGKGLEWVSGITWNGGSTGYADSVKDRFTISRDNAKNSLYLQMNSLRAEDTALYYCVRDKYSYAWSYDDFDIWGQGTMVTVSSGGGGSGGGGSGGGGSGGGGSGGGGSGGGGSEVQLVESGGGLVQPGGSLRLSCAASGFTLSNYWMNWVRQAPGKGLEWVANINQDGSERYYVDSVKGRFTISRDNAKNSLYLQMNSLRAEDTAVYYCARGGEGYGVDHYGLDVSGQGTTVTVSSGGGGSGGGGSGGGGSGGGGSGGGGSGGGGSEVQLVESGGGLVKPGGSLRLSCAASGFTFSNYNMNWVRQAPGKGLEWVSSISSAGTHIYYADSVKGRFTISRDNAKNSLYLQMNSLRAEDTAVYYCARDPHSTGWYKDFDYWGQGTLVTVSS
- EC50 [1]: 0.0515 nM
- EC50 [2]: 7.17 nM
- EC50 [3]: 6.87 nM
- EC50 [4]: 1.49 nM

B4: TPP-1409 CD137A-1GS-HSA2-1GS-PD138G7(G109D) (bispecific antibody)
chain: EVQLVESGGGLVQPGGSLRLSCAASGFTLSNYWMNWVRQAPGKGLEWVANINQDGSERYYVDSVKGRFTISRDNAKNSLYLQMNSLRAEDTAVYYCARGGEGYGVDHYGLDVSGQGTTVTVSSGGGGSEVQLVESGGGLVKPGGSLRLSCAASGFTFSNYNMNWVRQAPGKGLEWVSSISSAGTHIYYADSVKGRFTISRDNAKNSLYLQMNSLRAEDTAVYYCARDPHSTGWYKDFDYWGQGTLVTVSSGGGGSEVQLVESGGGVVRPGGSLRLSCAASGFTFDDYAMSWVRQAPGKGLEWVSGITWNGGSTGYADSVKDRFTISRDNAKNSLYLQMNSLRAEDTALYYCVRDKYSYAWSYDDFDIWGQGTMVTVSS
- EC50 [1]: 0.0259 nM

Other lines, results leading:

- EC50 [1]: 0.148 nM
B1: TPP-1439 PD138G7(G109D)-6GS-PD138G7(G109D)-6GS-CD137A-7-6GS-HSA2 (bispecific antibody)
chain: EVQLVESGGGVVRPGGSLRLSCAASGFTFDDYAMSWVRQAPGKGLEWVSGITWNGGSTGYADSVKDRFTISRDNAKNSLYLQMNSLRAEDTALYYCVRDKYSYAWSYDDFDIWGQGTMVTVSSGGGGSGGGGSGGGGSGGGGSGGGGSGGGGSEVQLVESGGGVVRPGGSLRLSCAASGFTFDDYAMSWVRQAPGKGLEWVSGITWNGGSTGYADSVKDRFTISRDNAKNSLYLQMNSLRAEDTALYYCVRDKYSYAWSYDDFDIWGQGTMVTVSSGGGGSGGGGSGGGGSGGGGSGGGGSGGGGSEVQLVESGGGLVQPGGSLRLSCAASGFTLSNYWMNWVRQAPGKGLEWVANINQDGSERYYVDSVKGRFTISRDNAKNSLYLQMNSLRAEDTAVYYCARGGEGYGVDHYGLDVSGQGTTVTVSSGGGGSGGGGSGGGGSGGGGSGGGGSGGGGSEVQLVESGGGLVKPGGSLRLSCAASGFTFSNYNMNWVRQAPGKGLEWVSSISSAGTHIYYADSVKGRFTISRDNAKNSLYLQMNSLRAEDTAVYYCARDPHSTGWYKDFDYWGQGTLVTVSS

- EC50 [1]: 0.0532 nM
B5: TPP-1410 PD138G7(G109D)-1GS-CD137A-6GS-HSA2 (bispecific antibody)
chain: EVQLVESGGGVVRPGGSLRLSCAASGFTFDDYAMSWVRQAPGKGLEWVSGITWNGGSTGYADSVKDRFTISRDNAKNSLYLQMNSLRAEDTALYYCVRDKYSYAWSYDDFDIWGQGTMVTVSSGGGGSEVQLVESGGGLVQPGGSLRLSCAASGFTLSNYWMNWVRQAPGKGLEWVANINQDGSERYYVDSVKGRFTISRDNAKNSLYLQMNSLRAEDTAVYYCARGGEGYGVDHYGLDVSGQGTTVTVSSGGGGSGGGGSGGGGSGGGGSGGGGSGGGGSEVQLVESGGGLVKPGGSLRLSCAASGFTFSNYNMNWVRQAPGKGLEWVSSISSAGTHIYYADSVKGRFTISRDNAKNSLYLQMNSLRAEDTAVYYCARDPHSTGWYKDFDYWGQGTLVTVSS

- EC50 [1]: 0.105 nM
B6: TPP-1438 CD137A-6GS-HSA2-6GS-PD138G7(G109D)-6GS-PD138G7(G109D) (bispecific antibody)
chain: EVQLVESGGGLVQPGGSLRLSCAASGFTLSNYWMNWVRQAPGKGLEWVANINQDGSERYYVDSVKGRFTISRDNAKNSLYLQMNSLRAEDTAVYYCARGGEGYGVDHYGLDVSGQGTTVTVSSGGGGSGGGGSGGGGSGGGGSGGGGSGGGGSEVQLVESGGGLVKPGGSLRLSCAASGFTFSNYNMNWVRQAPGKGLEWVSSISSAGTHIYYADSVKGRFTISRDNAKNSLYLQMNSLRAEDTAVYYCARDPHSTGWYKDFDYWGQGTLVTVSSGGGGSGGGGSGGGGSGGGGSGGGGSGGGGSEVQLVESGGGVVRPGGSLRLSCAASGFTFDDYAMSWVRQAPGKGLEWVSGITWNGGSTGYADSVKDRFTISRDNAKNSLYLQMNSLRAEDTALYYCVRDKYSYAWSYDDFDIWGQGTMVTVSSGGGGSGGGGSGGGGSGGGGSGGGGSGGGGSEVQLVESGGGVVRPGGSLRLSCAASGFTFDDYAMSWVRQAPGKGLEWVSGITWNGGSTGYADSVKDRFTISRDNAKNSLYLQMNSLRAEDTALYYCVRDKYSYAWSYDDFDIWGQGTMVTVSS
